This is an account of results in patent US8318918B2, “Chalcone 3-hydroxylase” (Technische Universitat Wien, priority 2009, dated 2012).

Experiment [1] deals with recombinant CH3H from Cosmos sulphureus. Nature of the experiment: Enzyme assay and kinetic studies of recombinant CH3H with 14C-labelled substrates. The class given is biochemical. Particulars: recombinant enzyme from the Cosmos sulphureus cDNA clone expressed in yeast. From the text:
Heterologous Expression in Yeast For the heterologous expression, the proofreading amplicons were ligated into the yeast expression vector pYES2.1/V5-His-TOPO® (Invitrogen, UK) and transformed into E. coli TOP10F′ (Invitrogen, UK). The identification of the sense constructs took place with a PCR, for which a gene-specific forward and a plasmid-specific reverse primer was used. Sense constructs were isolated and the correct sequence confirmed by sequencing. Desired plasmids were then transformed into the yeast strain INVSc 1 (Invitrogen, UK). The heterologous expression was performed according to methods known in science, and the prepared proteins were shock-frozen in liquid nitrogen and stored at −80° C. […]
(§1) In order to determine the substrate specificity of the heterologously expressed F3′Hs, the following enzyme tests were performed: 20 μg of the recombinant wild-type CH3H or 50 μg of the hybrid proteins, respectively, were incubated with 0.25 nmol [14C]-marked chalcone or flavonoid substrates in the presence of 10 mM NADPH and 0.1 M KH2PO4—K2HPO4 (with 0.4% Na-ascorbate, pH: 7.5) buffer at 30° C. […] Detection and quantification of radioactivity took place using TLC analysis.
Kinetic data (apparent Michaelis constant (Km) and maximum speed of reaction (Vmax)) were determined using Lineweaver Burk plots.

Experiment [2] can be described thus: F3′H activity (substrate acceptance) of heterologously expressed native, chimeric and mutated enzymes. The class given is biochemical, Cosmos sulphureus. The note with it: recombinant enzymes expressed in yeast.
Description: (§2) Heterologous Expression in Yeast For the heterologous expression, the proofreading amplicons were ligated into the yeast expression vector pYES2.1/V5-His-TOPO® (Invitrogen, UK) and transformed into E. coli TOP10F′ (Invitrogen, UK). The identification of the sense constructs took place with a PCR, for which a gene-specific forward and a plasmid-specific reverse primer was used. Sense constructs were isolated and the correct sequence confirmed by sequencing. Desired plasmids were then transformed into the yeast strain INVSc 1 (Invitrogen, UK). The heterologous expression was performed according to methods known in science, and the prepared proteins were shock-frozen in liquid nitrogen and stored at −80° C. The determination of the amount of protein in the preparations was performed according to a modified Lowry method.
as §1

Experiment [3] in a line: CH3H activity (hydroxylation of chalcones) of heterologously expressed native, chimeric and mutated enzymes. In kind it is biochemical, Cosmos sulphureus. Particulars: recombinant enzymes expressed in yeast.
Description: as §2, §1

Regarding `O=C(/C=C/c1ccc(O)cc1)c1ccc(O)cc1O` [Iso, isoliquiritigenin], the “catalytic CH3H activity with substrate” value in experiment [1] is on record as “high catalytic CH3H activities”.

B1: F3′H: recombinant F3′H from Cosmos sulphureus (Accession No.: FJ216426), tested as a comparison (protein, listed as Cosmos sulphureus)
chain: MTILPLLLYPSLTALLLYVLLNLRPRHPNRLPPGPSPWPIVGNLPHLGTTPHHSLAALAAKYGPLMHLRLGFVDVVVAASASVASQFLKTHDANFASRPPNSGAEHMAYNYQDLVFAPYGPRWRMLRKICSVHLFSGKALDDFRHVRQEEVAVLTRALAGAGKSPVKLGQLLSVCTTNALARVMLGRRVFGERDAKADEFKDMVVEMMVLAGEFNIGDFIPALDWLDLQGITKKMKKLHAQFDSFLNTILEEHKTGKGGSSSHRDLSSTLIALKDDADGEGGKLSDIEIKALLLNLFIAGTDTSSSTVEWAIAELIRCPQILRQAHEEMDNVVGRERLVTESDLGKLTFLQAIVKETFRLHPSTPLSLPRIASESCEIDGYFIPKGSTLLVNVWAIARDPKMWTDPLEFRPTRFLPGGEKPNVDVKGNDFEVIPFGAGRRICVGISLGLRMVQLLVATLVQTFDWELANGVLPEKLNMNEAFGLTLQRAEPLIVYPKPRLAPHVYESG
On to B1, for which, in experiment [2], the “F3′H activity” value was “confirmed the F3′H activity”. In experiment [3], the “CH3H activity (hydroxylation of chalcones)” value was “lacking CH3H activity”.
